In paper PMC2112199:

Molecular target: Acanthamoeba actin (Acanthamoeba)

kon: 7.8e+06 M⁻¹ s⁻¹
Substance: Acanthamoeba actin (natural protein)
